Assays:
[1] = target: T1, p97/valosin-containing protein (human, UniProt P55072 2-806); assay: co-immunoprecipitation from bronchial brushings of ΔF508 CF subjects (IP gp78, immunoblot VCP)
T1 construct: Endogenous protein detected by immunoblot in immunoprecipitates; also called VCP; VCP/p97
Description: (§1) Cells were lysed directly on plates using M-PER (Pierce Biotech. Inc., Rockford, Ill.) protein lysis buffer containing protease inhibitor cocktail (Roche) after three washes with ice cold PBS. CF bronchial brushings were transferred to lysis buffer. For immunoprecipitation, 500 μg/ml (cell culture)/50 μg/ml (bronchial brushings) total protein extracts were incubated with 50 μl of protein A/G agarose beads (Santa Cruz Biotechnology Inc., Santa Cruz, Calif.) for 3 hours at 4° C. After preclearing, 5 μg of respective primary antibody or pre-immune sera (negative control) was added to each tube. After 1 hour, protein A/G agarose beads (50 μL) were added to each tube and tubes were incubated overnight at 4° C. Beads were washed once with lysis buffer (20 mM Tris-HC1 [pH 7.6], 150 mM NaCl, 0.5% Triton X-100 and 10 μM phenylmethylsulfonyl fluoride [PMSF]) followed with two washes with phosphate buffer saline (PBS). The beads were suspended in Laemmli's sample buffer (30 μL) containing β-mercaptoethanol, vortexed for 1 minute, resolved by 4-10% SDS-PAGE and transferred to a 0.4-μm pore size nitrocellulose membrane.

Hsc70 = Hsc70 (human, UniProt P11142 2-646); assay: co-immunoprecipitation from bronchial brushings of ΔF508 CF subjects (IP gp78, immunoblot Hsc70)
Description: as §1

Chain of Hsc70 (P11142 2-646 limits assumed): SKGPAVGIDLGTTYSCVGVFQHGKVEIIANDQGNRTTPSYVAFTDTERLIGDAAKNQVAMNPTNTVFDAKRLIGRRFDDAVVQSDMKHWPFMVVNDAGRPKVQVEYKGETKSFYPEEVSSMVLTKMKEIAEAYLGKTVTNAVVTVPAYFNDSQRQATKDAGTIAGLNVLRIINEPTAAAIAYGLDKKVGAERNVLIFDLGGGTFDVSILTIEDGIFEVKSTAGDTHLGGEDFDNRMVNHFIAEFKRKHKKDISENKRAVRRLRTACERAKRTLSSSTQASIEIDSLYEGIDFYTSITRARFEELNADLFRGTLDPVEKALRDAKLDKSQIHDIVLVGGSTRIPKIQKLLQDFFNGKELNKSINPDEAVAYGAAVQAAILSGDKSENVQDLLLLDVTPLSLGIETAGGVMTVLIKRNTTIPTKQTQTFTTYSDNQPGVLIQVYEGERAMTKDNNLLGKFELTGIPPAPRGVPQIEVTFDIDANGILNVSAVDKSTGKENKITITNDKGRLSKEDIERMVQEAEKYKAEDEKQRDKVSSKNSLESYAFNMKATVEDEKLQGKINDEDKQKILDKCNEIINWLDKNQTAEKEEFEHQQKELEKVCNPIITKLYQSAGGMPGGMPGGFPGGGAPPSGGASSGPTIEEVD
T1 sequence (P55072 2-806 limits assumed): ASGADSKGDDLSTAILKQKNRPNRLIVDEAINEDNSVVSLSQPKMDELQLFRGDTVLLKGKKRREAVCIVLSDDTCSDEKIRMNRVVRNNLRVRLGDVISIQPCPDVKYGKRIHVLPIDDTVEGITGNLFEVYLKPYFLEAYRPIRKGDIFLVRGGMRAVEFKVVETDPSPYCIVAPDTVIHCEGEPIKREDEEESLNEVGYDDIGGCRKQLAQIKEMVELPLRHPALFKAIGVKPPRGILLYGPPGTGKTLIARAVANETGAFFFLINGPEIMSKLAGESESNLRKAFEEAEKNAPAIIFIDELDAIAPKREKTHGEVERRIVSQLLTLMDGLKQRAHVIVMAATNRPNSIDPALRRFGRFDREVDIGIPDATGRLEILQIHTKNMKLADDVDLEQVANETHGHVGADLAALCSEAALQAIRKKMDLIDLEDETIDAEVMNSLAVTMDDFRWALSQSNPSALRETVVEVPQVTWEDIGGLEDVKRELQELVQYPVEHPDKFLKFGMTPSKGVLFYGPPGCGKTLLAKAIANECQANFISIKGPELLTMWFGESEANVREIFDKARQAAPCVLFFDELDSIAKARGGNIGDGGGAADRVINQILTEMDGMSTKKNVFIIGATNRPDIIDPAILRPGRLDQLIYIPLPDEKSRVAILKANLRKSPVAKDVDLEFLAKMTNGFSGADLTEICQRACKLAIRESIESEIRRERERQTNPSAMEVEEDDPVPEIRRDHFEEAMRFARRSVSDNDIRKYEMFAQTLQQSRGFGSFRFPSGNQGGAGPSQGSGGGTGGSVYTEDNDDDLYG

B1: gp78 (enzyme, human, UniProt Q9UKV5 1-643, looked up)
chain: MPLLFLERFPWPSLRTYTGLSGLALLGTIISAYRALSQPEAGPGEPDQLTASLQPEPPAPARPSAGGPRARDVAQYLLSDSLFVWVLVNTACCVLMLVAKLIQCIVFGPLRVSERQHLKDKFWNFIFYKFIFIFGVLNVQTVEEVVMWCLWFAGLVFLHLMVQLCKDRFEYLSFSPTTPMSSHGRVLSLLVAMLLSCCGLAAVCSITGYTHGMHTLAFMAAESLLVTVRTAHVILRYVIHLWDLNHEGTWEGKGTYVYYTDFVMELTLLSLDLMHHIHMLLFGNIWLSMASLVIFMQLRYLFHEVQRRIRRHKNYLRVVGNMEARFAVATPEELAVNNDDCAICWDSMQAARKLPCGHLFHNSCLRSWLEQDTSCPTCRMSLNIADNNRVREEHQGENLDENLVPVAAAEGRPRLNQHNHFFHFDGSRIASWLPSFSVEVMHTTNILGITQASNSQLNAMAHQIQEMFPQVPYHLVLQDLQLTRSVEITTDNILEGRIQVPFPTQRSDSIRPALNSPVERPSSDQEEGETSAQTERVPLDLSPRLEETLDFGEVEVEPSEVEDFEARGSRFSKSADERQRMLVQRKDELLQQARKRFLNKSSEDDAASESFLPSEGASSDPVTLRRRMLAAAAERRLQKQQTS
notes: also called AMFR; AMFR/gp78
- binding result [1]: no binding
- binding result (Hsc70): no binding

Reference: US20100222408A1 (Johns Hopkins, published 2010)
